Target: T1, HLA-B*07:02 (human)
T1 construct: also called peptide-receptive MHC molecules
Assay: UV-exchange b2m ELISA; exchange-yield grade
Excerpt: Candidate peptides for T cell based therapies according to the present invention were further tested for their MHC binding capacity (affinity). The individual peptide-MHC complexes were produced by UV-ligand exchange, where a UV-sensitive peptide is cleaved upon UV-irradiation, and exchanged with the peptide of interest as analyzed. Only peptide candidates that can effectively bind and stabilize the peptide-receptive MHC molecules prevent dissociation of the MHC complexes. To determine the yield of the exchange reaction, an ELISA was performed based on the detection of the light chain (β2m) of stabilized MHC complexes. The assay was performed as generally described in Rodenko et al. (Rodenko et al., 2006).
96 well MAXISorp plates (NUNC) were coated over night with 2 ug/ml streptavidin in PBS at room temperature, washed 4× and blocked for 1 h at 37° C. in 2% BSA containing blocking buffer. Refolded HLA-A*02:01/MLA-001 monomers served as standards, covering the range of 15-500 ng/ml. Peptide-MHC monomers of the UV-exchange reaction were diluted 100-fold in blocking buffer. Samples were incubated for 1 h at 37° C., washed four times, incubated with 2 ug/ml HRP conjugated anti-β2m for 1 h at 37° C., washed again and detected with TMB solution that is stopped with […]. Absorption was measured at 450 nm. Candidate peptides that show a high exchange yield (preferably higher than 50%, most preferred higher than 75%) are generally preferred for a generation and production of antibodies or fragments thereof, and/or T cell receptors or fragments thereof, as they show sufficient avidity to the MHC molecules and prevent dissociation of the MHC complexes.

| Binder | peptide exchange yield [%] |
| --- | --- |
| YPRTITPGM | 50 to 75 |
| KPGTSYRVTL | 50 to 75 |
| SPRRSPRISF | 20 to 50 |
| RPIVPGPLL | 50 to 75 |
| IPMAAVKQAL | 50 to 75 |
| HPGSSALHY | 20 to 50 |
| APTEDLKAL | 50 to 75 |
| RVRSRISNL | 50 to 75 |
| LPYGPGSEAAAF | 50 to 75 |
| APRPASSL | 50 to 75 |
| SPNKGTLSV | 50 to 75 |
| SPMATTSTL | 50 to 75 |
| LPSDSHFKITF | 50 to 75 |
| RPAMNYDKL | 20 to 50 |
| KPGPEDKL | 20 to 50 |
| LPRGPLASLL | 50 to 75 |
| VPNQSSESL | 50 to 75 |
| RPAPFEVVF | 50 to 75 |
| SPHPVTALLTL | 50 to 75 |
| RPLFYVVSL | 20 to 50 |
| IPRPEVQAL | 50 to 75 |
| LPYFREFSM | 50 to 75 |
| VPDQPHPEI | 50 to 75 |

| Binder | peptide exchange yield [%] |
| --- | --- |
| APLPRPGAVL | 50 to 75 |
| RPLFQKSSM | 50 to 75 |
| YPTEHVQF | 20 to 50 |
| GPREALSRL | 50 to 75 |
| FPQSQYPQY | 50 to 75 |
| SPAMTSTSF | 20 to 50 |
| KPYGGSGPL | 50 to 75 |
| APAAWLRSA | 20 to 50 |
| IPGPAQSTI | 20 to 50 |
| FPFQPGSV | 50 to 75 |
| LPRPGAVL | 50 to 75 |
| SPMTSLLTSGL | 50 to 75 |
| KVKSDRSVF | 10 to 20 |
| SPRTEASSAVL | 50 to 75 |
| VPDSGATATAY | 20 to 50 |
| VPVYILLDEM | 20 to 50 |
| SPTFHLTL | 50 to 75 |
| TPGLRETSI | 20 to 50 |
| YPGFPQSQY | 20 to 50 |
| SPSSPMSTF | 20 to 50 |
| APRWFPQPTVV | 50 to 75 |
| SPGATSRGTL | 50 to 75 |
| SPASRSISL | 50 to 75 |

| Binder | peptide exchange yield [%] |
| --- | --- |
| EPKTATVL | 20 to 50 |
| KPSESIYSAL | 50 to 75 |
| RVEEVRALL | 50 to 75 |
| YPLRGSSIF | 50 to 75 |
| SPFSAEEANSL | 50 to 75 |
| APRAGSQVV | 50 to 75 |
| YPLRGSSIFGL | 50 to 75 |
| YPLRGSSI | 20 to 50 |
| MPNLPSTTSL | 50 to 75 |
| FPRLVGPDF | 50 to 75 |
| TVREASGLL | 50 to 75 |
| SPRENFPDTL | 50 to 75 |
| SPSPVSSTL | 50 to 75 |
| SPSPVTSTL | 50 to 75 |
| RVRSTISSL | 50 to 75 |
| YPEGAAYEF | 20 to 50 |
| SPQSMSNTL | 50 to 75 |
| FPDNQRPAL | 50 to 75 |
| LPMWKVTAF | 50 to 75 |
| APVIFSHSA | 20 to 50 |
| TPWAESSTKF | 20 to 50 |

From patent publication US20180222961A1 (IMMATICS BIOTECHNOLOGIES, published 2018)
